{"source": "patent US20110183888A1", "test_in_all_cases": "cell-based or functional assay", "key": {"JNK2, P45984": {"target": "JNK2, P45984"}, "JNK3, P53779": {"target": "JNK3, P53779", "sequence (P53779 whole entry)": "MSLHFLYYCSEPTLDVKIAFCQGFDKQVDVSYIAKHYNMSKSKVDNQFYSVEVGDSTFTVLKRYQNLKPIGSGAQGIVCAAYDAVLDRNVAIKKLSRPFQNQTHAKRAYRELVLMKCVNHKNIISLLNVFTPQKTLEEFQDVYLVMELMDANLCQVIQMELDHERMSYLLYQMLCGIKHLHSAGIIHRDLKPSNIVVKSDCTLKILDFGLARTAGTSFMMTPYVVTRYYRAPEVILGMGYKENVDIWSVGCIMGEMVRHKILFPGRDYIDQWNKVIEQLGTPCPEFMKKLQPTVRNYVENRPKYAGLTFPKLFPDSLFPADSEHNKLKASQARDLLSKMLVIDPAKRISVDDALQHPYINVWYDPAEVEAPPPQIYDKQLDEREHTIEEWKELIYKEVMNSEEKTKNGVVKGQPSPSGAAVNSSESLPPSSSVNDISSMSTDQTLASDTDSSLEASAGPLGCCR"}, "JNK1, P45983": {"target": "JNK1, P45983", "sequence (P45983 whole entry)": "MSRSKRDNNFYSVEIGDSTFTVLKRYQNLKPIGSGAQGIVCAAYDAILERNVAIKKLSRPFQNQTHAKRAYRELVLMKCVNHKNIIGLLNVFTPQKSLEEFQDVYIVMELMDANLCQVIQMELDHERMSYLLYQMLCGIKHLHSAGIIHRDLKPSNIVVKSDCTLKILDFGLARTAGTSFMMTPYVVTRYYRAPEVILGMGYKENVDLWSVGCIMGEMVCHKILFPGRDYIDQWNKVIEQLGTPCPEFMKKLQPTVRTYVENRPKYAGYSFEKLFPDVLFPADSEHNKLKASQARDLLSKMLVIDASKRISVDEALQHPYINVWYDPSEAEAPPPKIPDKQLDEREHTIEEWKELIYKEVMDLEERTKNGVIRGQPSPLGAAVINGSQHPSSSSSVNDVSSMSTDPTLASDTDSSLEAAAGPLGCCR"}}, "note": "Square brackets hold non-standard residues; d marks the D form. Ends that are not written are not given here.", "data": [{"binder": "GRKKRRQRRRPPRPKRPTTLNLFPQVPRSQD", "note": "[L-TAT-IB1(s)]", "values": [{"measurement": "inhibition of c-Jun, ATF2 and Elk1 phosphorylation by JNKs (solid phase kinase assay, 33P, SDS-PAGE)", "setting": "JNK2, P45984", "result": 2.5, "unit": "µM"}, {"measurement": "inhibition of c-Jun, ATF2 and Elk1 phosphorylation by JNKs (solid phase kinase assay, 33P, SDS-PAGE)", "setting": "JNK3, P53779", "result": 2.5, "unit": "µM"}, {"measurement": "inhibition of c-Jun, ATF2 and Elk1 phosphorylation by JNKs (solid phase kinase assay, 33P, SDS-PAGE)", "setting": "JNK1, P45983", "result": 2.5, "unit": "µM"}]}, {"binder": "[dD][dQ][dS][dR][dP][dV][dQ][dP][dF][dL][dN][dL][dT][dT][dP][dR][dK][dP][dR][dP][dP][dR][dR][dR][dQ][dR][dR][dK][dK][dR]G", "note": "[D-TAT-IB1(s)]", "values": [{"measurement": "inhibition of GST-Jun (aa 1-73) phosphorylation by recombinant JNK; fold less efficient than L-TAT-IB1(s)", "setting": "JNK2, P45984", "result": "10 to 20", "unit": "fold"}, {"measurement": "inhibition of GST-Jun (aa 1-73) phosphorylation by recombinant JNK; fold less efficient than L-TAT-IB1(s)", "setting": "JNK3, P53779", "result": "10 to 20", "unit": "fold"}, {"measurement": "inhibition of GST-Jun (aa 1-73) phosphorylation by recombinant JNK; fold less efficient than L-TAT-IB1(s)", "setting": "JNK1, P45983", "result": "10 to 20", "unit": "fold"}]}]}
